Changes are numbered by the printed parent chain. Where two headings read alike, the source gives them in different places.

Holding throughout (assay): SPR
Assay [1] has as its target T1, mIL10RaFc (Sino 51298-M02H) (mouse, UniProt Q61727).
T1 chain: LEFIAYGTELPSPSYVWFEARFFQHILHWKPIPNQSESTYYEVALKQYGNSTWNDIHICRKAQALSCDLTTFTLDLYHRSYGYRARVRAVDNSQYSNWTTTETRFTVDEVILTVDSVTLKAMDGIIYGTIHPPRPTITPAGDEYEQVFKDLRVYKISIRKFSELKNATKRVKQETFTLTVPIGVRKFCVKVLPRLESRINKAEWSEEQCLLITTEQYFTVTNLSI

Assay [2] addresses T1, mIL10RaFc (Sino 51298-M02H).
A further assay addresses T2, hIL10RaFc (R&D 9044-RI) (human, UniProt Q13651).
T2 chain: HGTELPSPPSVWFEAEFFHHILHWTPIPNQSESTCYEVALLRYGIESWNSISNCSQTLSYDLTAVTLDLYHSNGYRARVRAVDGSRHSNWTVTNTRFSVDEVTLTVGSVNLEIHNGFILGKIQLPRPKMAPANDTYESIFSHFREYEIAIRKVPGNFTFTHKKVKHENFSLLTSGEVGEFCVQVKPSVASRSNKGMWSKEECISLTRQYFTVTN

B1: DR2822 (designed binder)
chain: GKSKAVEQVKSDFNKLQDQGVYKAMNEFDIFINAIEAYMMIKMKSREDNNCTHFPVGQSHMLLELRTAFSQVKTFFQTKDQLDNILLTDSLMQDFKGYLGCQALSEMIQFYLVEVMPQAEKHGPEIKEHLNSLGEKLKTLRMRLRRCHRFLPCEN
Broadly, the Kd is a measure of binding affinity in units of concentration. A lower Kd goes with higher affinity. Molecule B1 came in with a Kd in assay [1] of 6.42 nM.

B2: DR2820 (designed binder)
chain: GKCKAVEQVKSDFNKLQDQGVYKAMNEFDIFINAIEAYMMIKMKSQYSREDNNCTHFPVGQSHMLLELRTAFSQVKTFFQTKDQLDNILLTDSLMQCFKGYLGCQALSEMIQFYLVEVMPQAEKHGPEIKEHLNSLGEKLKTLRMRLRRCHRFLPCEN
Molecule B2 displayed a Kd in assay [1] of 3.37 nM.

B3: DR2818 (designed binder)
chain: B2 chain with C3S, A5C, L94C, C97D
In the case of B3, in assay [1], the Kd worked out at 2.34 nM.

B4: DR2821 (designed binder)
chain: B2 chain with C3S, V6C, C97D, E109C
Regarding B4, in assay [1], binding was characterised by a dissociation constant (Kd) of 4.49 nM.

B5: DR2819 (designed binder)
chain: B2 chain with C3S, A5C
B5 registered a Kd in assay [1] of 2.71 nM.

B6: WC161_AA (mIL10 WT inverted monomer) (designed binder)
chain: NKSKAVEQVKSDFNKLQDQGVYKAMNEFDIFINAIEAYMMIKMKSSRGQYSREDNNCTHFPVGQSHMLLELRTAFSQVKTFFQTKDQLDNILLTDSLMQDFKGYLGCQALSEMIQFYLVEVMPQAEKHGPEIKEHLNSLGEKLKTLRMRLRRCHRFLPCENGGSHHHHHHHH
As to B6, the Kd is 6.54 nM in assay [2] and 5.27 nM in assay [1].

B7: mIL10 WT (protein)
chain: SRGQYSREDNNCTHFPVGQSHMLLELRTAFSQVKTFFQTKDQLDNILLTDSLMQDFKGYLGCQALSEMIQFYLVEVMPQAEKHGPEIKEHLNSLGEKLKTLRMRLRRCHRFLPCENKSKAVEQVKSDFNKLQDQGVYKAMNEFDIFINCIEAYMMIKMKS
modifications: wild-type mouse IL10, homodimer; exact construct/tag not stated
Molecule B7 registered a Kd in assay [2] of 0.81 nM.

B8: DR2806 (designed binder)
chain: GKSKAVEQVKSIFNKLQDQGVYKAMNEFDIFINAIEAYMMIKMKSSREDNNCTHFNVGLSHMLLELRTAFSQVKTFFQTKDQLDNILLTDSLMQDFKGYLGCQALSEMIQFYLVEVLPQAEKHGPEIKEHLNSLGEILKTLRMRLRRCHRFLPCEN
Regarding B8, binding in assay [1] was characterised by a dissociation constant (Kd) of 2.7 nM.

B9: DR2813 (designed binder)
chain: B8 chain with I12D, N56W, G58A, L59M, F70A, N132I
Regarding B9, the affinity in assay [1], expressed as Kd, was 39.9 nM. Compared with the last molecule, the Kd is about 15-fold higher.

B10: DR2817 (designed binder)
chain: B8 chain with I12D, F55A, N56P, L59Q, I137K
B10 returned a Kd in assay [1] of 1.65 nM.

B11: DR2808 (designed binder)
chain: B8 chain with F55A, N56P, L59Q
The molecule B11 registered a Kd in assay [1] of 1.35 nM.

B12: DR2809 (designed binder)
chain: B8 chain with F55A, N56P, L59Q, I137K
Take B12: binding in assay [1] was put at a Kd of 17.3 nM.

B13: DR2807 (designed binder)
chain: B8 chain with N56P, L59Q, L117M, I137K
The molecule B13 came in with a Kd in assay [1] of 144 nM.

B14: DR2823 (designed binder)
chain: B8 chain with I12D, N56P, L59Q, L117M, I137K
In assay [1], B14 displayed a Kd of 5.2 nM.

B15: DR2802 (designed binder)
chain: B8 chain with N56M, G58A, L59M, I137K
B15 showed a Kd in assay [1] of 2.29 nM.

B16: DR2816 (designed binder)
chain: B8 chain with I12D, F55A, N56P, L59Q
In assay [1], B16 returned a Kd of 1.61 nM.

B17: DR2805 (designed binder)
chain: B8 chain with F31V, F55A, N56P, G58M, L59F
For the molecule B17, binding in assay [1] was put at a Kd of 30.9 nM. Against the preceding molecule, the Kd is about 19-fold higher.

B18: DR2804 (designed binder)
chain: B8 chain with F55A, N56P, L59M, N132I
Regarding B18, the Kd in assay [1] was found to be 1.59 nM.

B19: DR2815 (designed binder)
chain: B8 chain with I12D, G58V, L59M, I137K
B19 displayed a Kd in assay [1] of 1 nM.

B20: DR2803 (designed binder)
chain: B8 chain with F55A, N56P, G58A, L59F, S60W
The molecule B20 registered a dissociation constant (Kd) in assay [1] of 1.7 nM.

B21: hIL10 WT (protein)
chain: SPGQGTQSENSCTHFPGNLPNMLRDLRDAFSRVKTFFQMKDQLDNLLLKESLLEDFKGYLGCQALSEMIQFYLEEVMPQAENQDPDIKAHVNSLGENLKTLRLRLRRCHRFLPCENKSKAVEQVKNAFNKLQEKGIYKAMSEFDIFINYIEAYMTMKIRN
modifications: wild-type human IL10, homodimer; exact construct/tag not stated
B21 had a Kd in the assay with hIL10RaFc (R&D 9044-RI) of 0.06 nM.

B22: h_DR1060_AA (hIL10 WT inverted monomer) (designed binder)
chain: KSKAVEQVKNAFNKLQEKGIYKAMSEFDIFINYIEAYMTMKIRNSPGQGTQSENSCTHFPGNLPNMLRDLRDAFSRVKTFFQMKDQLDNLLLKESLLEDFKGYLGCQALSEMIQFYLEEVMPQAENQDPDIKAHVNSLGENLKTLRLRLRRCHRFLPCENGGSHHHHHHHH
B22 showed a Kd in the assay with hIL10RaFc (R&D 9044-RI) of 0.38 nM.

Source of the values: US20260365709 (published 2026).
